Patent publication US7402570

Tests used:
[1] = target: human p53 protein, full length (human) (UniProt P04637); assay: cell-based or functional assay
[2] = target: lexA-p53 (p53 codons 1-73) fusion (human); assay: cell-based or functional assay

human p53 protein, full length (human), sequence (P04637 whole entry, the tested form may be a part): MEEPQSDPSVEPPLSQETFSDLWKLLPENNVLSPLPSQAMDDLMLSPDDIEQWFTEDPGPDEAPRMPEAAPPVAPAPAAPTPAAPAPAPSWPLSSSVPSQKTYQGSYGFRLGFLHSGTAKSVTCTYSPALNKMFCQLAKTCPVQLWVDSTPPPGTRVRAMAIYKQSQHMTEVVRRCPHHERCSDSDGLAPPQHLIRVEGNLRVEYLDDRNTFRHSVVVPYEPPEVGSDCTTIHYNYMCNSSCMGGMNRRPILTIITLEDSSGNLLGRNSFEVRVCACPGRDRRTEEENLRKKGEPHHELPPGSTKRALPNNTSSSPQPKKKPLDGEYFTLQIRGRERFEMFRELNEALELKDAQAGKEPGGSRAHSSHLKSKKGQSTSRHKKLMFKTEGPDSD

inhibition of p53-mediated transactivation of a p53-responsive β-galactosidase reporter in yeast [1]: 16 fold
decrease in lexA-responsive β-galactosidase reporter activity in yeast [2]: 5 fold
Substance: human MDM2 protein (hMDM2), full length
